Experimental findings from PMC11838001 are described below.

The experiment has as its target E-cadherin (human (endogenous in NHEK)). Put plainly: FRET or BRET; FLIM-FRET in fixed, permeabilized NHEK cells, untreated or treated with 6 μM CHIR99021 for 48 hours; β-catenin labelled by antibodies as donor (Alexa Fluor 488), E-cadherin as acceptor (Alexa Fluor 555); FRET efficiency from regions at cell-cell junctions, dual exponential fit.

Sequence of E-cadherin (human (endogenous in NHEK)) (P12830 23-882): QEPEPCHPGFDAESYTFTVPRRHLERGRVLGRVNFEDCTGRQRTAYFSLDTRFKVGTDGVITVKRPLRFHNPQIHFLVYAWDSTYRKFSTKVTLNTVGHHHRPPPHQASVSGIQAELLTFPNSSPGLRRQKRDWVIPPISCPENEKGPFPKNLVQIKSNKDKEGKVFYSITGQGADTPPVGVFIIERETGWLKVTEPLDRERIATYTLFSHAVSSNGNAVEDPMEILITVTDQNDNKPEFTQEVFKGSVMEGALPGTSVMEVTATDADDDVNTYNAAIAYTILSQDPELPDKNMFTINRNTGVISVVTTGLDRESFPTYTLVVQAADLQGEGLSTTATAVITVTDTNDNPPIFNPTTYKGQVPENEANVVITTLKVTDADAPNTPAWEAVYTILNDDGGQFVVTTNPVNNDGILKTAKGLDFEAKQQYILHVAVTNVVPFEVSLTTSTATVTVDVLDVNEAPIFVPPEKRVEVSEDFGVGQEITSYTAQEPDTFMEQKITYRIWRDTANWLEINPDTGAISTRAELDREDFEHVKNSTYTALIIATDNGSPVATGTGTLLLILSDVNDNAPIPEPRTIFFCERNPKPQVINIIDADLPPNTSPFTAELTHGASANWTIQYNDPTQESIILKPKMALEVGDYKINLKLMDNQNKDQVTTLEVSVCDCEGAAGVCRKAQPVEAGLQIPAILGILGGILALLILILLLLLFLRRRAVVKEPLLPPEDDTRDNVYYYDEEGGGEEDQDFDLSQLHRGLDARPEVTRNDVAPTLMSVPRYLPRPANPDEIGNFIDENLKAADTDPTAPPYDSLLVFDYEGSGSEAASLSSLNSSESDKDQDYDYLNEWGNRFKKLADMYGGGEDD
Sequence of β-catenin (P35222 whole entry): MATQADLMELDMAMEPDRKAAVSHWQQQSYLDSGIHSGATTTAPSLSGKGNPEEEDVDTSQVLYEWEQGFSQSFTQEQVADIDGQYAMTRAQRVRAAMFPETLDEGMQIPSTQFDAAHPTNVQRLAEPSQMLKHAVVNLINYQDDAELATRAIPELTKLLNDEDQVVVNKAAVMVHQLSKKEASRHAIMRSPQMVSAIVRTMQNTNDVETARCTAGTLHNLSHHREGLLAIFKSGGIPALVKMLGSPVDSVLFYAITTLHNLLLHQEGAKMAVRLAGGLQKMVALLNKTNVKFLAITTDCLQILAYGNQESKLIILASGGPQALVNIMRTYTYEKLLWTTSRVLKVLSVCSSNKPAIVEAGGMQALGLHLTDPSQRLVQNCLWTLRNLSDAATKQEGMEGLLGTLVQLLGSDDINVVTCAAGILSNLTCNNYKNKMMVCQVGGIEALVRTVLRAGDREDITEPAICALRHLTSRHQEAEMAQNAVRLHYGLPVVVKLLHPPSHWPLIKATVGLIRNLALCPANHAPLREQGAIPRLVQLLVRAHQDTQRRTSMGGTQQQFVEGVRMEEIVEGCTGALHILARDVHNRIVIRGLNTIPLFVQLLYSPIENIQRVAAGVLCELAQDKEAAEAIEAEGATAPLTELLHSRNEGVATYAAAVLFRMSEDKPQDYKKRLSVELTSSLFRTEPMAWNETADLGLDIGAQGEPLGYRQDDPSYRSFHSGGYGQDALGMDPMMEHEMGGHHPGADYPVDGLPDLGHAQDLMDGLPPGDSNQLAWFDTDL

“β-catenin (from UniProt P35222 1-781) (natural protein)” showed a fold change of FRET efficiency, CHIR-treated against untreated cells of 3 fold.
